The data set can be described thus: soluble on expression in E. coli; label from the status in PepcDB or PDB records.
“MELISIIVPVYNGEIYIGRCLDSILEQTYQNLEIIIIDDGSSDRTGDICEKYFLEDRRIKYFYQENRGQSVARNNGVLRCTGDWIAFLDSDDVYLPYSIEVMYNIQKATNADIVLTSIGNFNNTYNTSINSQYLKEIKLYTLEVALEEMYYGKTYGVSPLAKLYPRSNLLSNPYPEGKIHEDMDTTFKLISCASKIAVCDIVTAVVYFSDNSTTRTKFNERMLYFFEAIQNNIVFINLNFPHNTSLISAVIYNEVFGGIDICGKMIDFKLYDTVDYYRKKYRKYFKTILFNNRISVKEKVKYILFISSIRYFTIVRKIYNLRLSRNGLEHHHHHH”: the “soluble on expression in E. coli” value was “not soluble”.

Consider “MELPFSQACENNKDPILEVLKTAFSDCTRVLEVGSGTGQHAVYFASQLPNIHWQASDQKEYLPGVTARIKQEGVTNQPLPVEFDVFADAPGGTFNALFTANTCHIMPKEGVERLFEHLEGDLSSVERLCIYGPFNDNGHFTSDSNRGFHQSLQSRNSDMGIRDWQWITELANQQGFELKKIHPLPANNQLLEFQRLEHHHHHH”, for which the “soluble on expression in E. coli” value is given as “soluble”.

On to “MELQEVLHMNGGEGDTSYAKNSSYNLFLIRVKPVLEQCIQELLRANLPNINKCFKVGDLGCASGPNTFSTVRDIVQSIDKVGQEKKNELERPTIQIFLNDLFQNDFNSVFKLLPSFYRNLEKENGRKIGSCLIGAMPGSFYSRLFPEESMHFLHSCYCLHWLSQVPSGLVTELGISVNKGCIYSSKASRPPIQKAYLDQFTKDFTTFLRIHSEELISRGRMLLTFICKEDEFDHPNSMDLLEMSINDLVIEGHLEEEKLDSFNVPIYAPSTEEVKRIVEEEGSFEILYLETFNAPYDAGFSIDDDYQGRSHSPVSCDEHARAAHVASVVRSIYEPILASHFGEAILPDLSHRIAKNAAKVLRSGKGFYDSVIISLAKKPEKADM”, for which the “soluble on expression in E. coli” value is recorded as “soluble”.

Turning to “MELTMKNPTVENLKVLTQEFFSLHWNAVLLGSDYPEWSDIYEFTGSMPNHDKQGVYAFVKNGVVTYIGVGASSNGTGRYAGHGLGKRFQSYSKVVDGRHVPTDPRLVDAGAMITIGFKPEQSYLAYALEMFLIGKMSTEHNINRPSK”, the “soluble on expression in E. coli” value is recorded as “not soluble”.

For the sequence “MELVIISGRSGSGKSVALRALEDVGYYCVDNLPFPLIAELASFLLASDCSAVVSLDIRNFPENLTRIDELLHQLSQLTINTKMIFLDCESATLIRRYSDSRRLHPLSNQDLSLASAIELENTLLDPLRQQADYLIDTTHSSPHELAANLRHILRGSTEKELNIVFESFGFKYGLSADADYVFDVRFLPNPHWHAELRAMTGLEQPVIDFLERQTEVHNFIYQTRNYLETWLPMLEKNNRSYLTIAFGCTGGKHRSVFITEQLAKYFQSRGKNVKIRHRSLEKY”, the “soluble on expression in E. coli” value is recorded as “not soluble”.

Take “MEMTSAFTLNVRLDNIAVITIDVPGEKMNTLKAEFASQVRAIIKQLRENKELRGVVFVSAKPDNFIAGADINMIGNCKTAQEAEALARQGQQLMAEIHALPIQVIAAIHGACLGGGLELALACHGRVCTDDPKTVLGLPEVQLGLLPGSGGTQRLPRLIGVSTALEMILTGKQLRAKQALKLGLVDDVVPHSILLEAAVELAKKERPSSRPLPVRERILAGPLGRALLFKMVGKKTEHKTQGNYPATERILEVVETGLAQGTSSGYDAEARAFGELAMTPQSQALRSIFFASTDVKKDPGSDAPPAPLNSVGILGGGLMGGGIAYVTACKAGIPVRIKDINPQGINHALKYSWDQLEGKVRRRHLKASERDKQLALISGTTDYRGFAHRDLIIEAVFENLELKQQMVAEVEQNCAAHTIFASNTSSLPIGDIAAHATRPEQVIGLHFFSPVEKMPLVEIIPHAGTSAQTIATTVKLAKKQGKTPIVVRDKAGFYVNRILAPYINEAIRMLTQGERVEHIDAALVKFGFPVGPIQLLDEVGIDTGTKIIPVLEAAYGERFSAPANVVSSILNDDRKGRKNGRGFYLYGQKGRKSKKQVDPAIYPLIGTQGQGRISAPQVAERCVMLMLNEAVRCVDEQVIRSVRDGDIGAVFGIGFPPFLGGPFRYIDSLGAGEVVAIMQRLATQYGSRFTPCERLVEMGARGESFWKTTATDLQ”: the “soluble on expression in E. coli” value is “soluble”.

Take “MENGIGYIPLLNVSHKHGGTHFYRKNSGTCDLCEKNFKTSEELVEHKKNYPRADVEKALSVYKEKDTIYKCLQCSGEFRLKEDFDYHQELHKRLGELKSASSNKSEANKDDESDIDSSFEIIEN”: the “soluble on expression in E. coli” value is listed as “not soluble”.

For “MENLKNVAPIEDFNWDAYENGEAVTSASHEDLEKAYDGTLNKVNDREVVDGTVIAMNKREVVVNIGYKSDGIIPLNEFRYNPDLKVGDTVEVYIENQEDKKGQLVLSHRKARATRSWDRVNAALENEEIIKGFIKCRTKGGMIVDVFGIEAFLPGSQIDVKPIRDYDVFVGKTMEFKVVKINQEFKNVVVSHKALIEAELEQQKKEIIGKLEKGQVLEGTVKNITSYGVFIDLGGVDGLIHITDLSWGRVSDPKEVVELDQKLNVVILDFDDEKKRIALGLKQLTPHPWDALDTDLKVGDKVKGKVVVMADYGAFIEIATGVEGLIHVSEMSWSQHLRSAQDFMKVGDEVEAVVLTLDREERKMSLGIKQLKQDPWETIEEKYPVGSKHTAKVRNFTNFGVFVEIEEGVDGLIHISDLSWTKKVKHPSEFTQIGADIEVQVLEIDKENRRLSLGHKQLEENPWDVFETVFTVGSVHEGTIIEMLDKGAVVALPYGVEGFATPKHLVKEDGSQAQLDEKLEFKVIEFNKDAKRIILSHSRIFEDVAKAEERAEKKAASGAKKSSNNKREDAPMIQNQAASTTLGDIDALAALKEQLEGKKLEHHHHHH”, the “soluble on expression in E. coli” value was “soluble”.

Regarding “MENPLQKARILVNQLEKYLDHYAKEYDVEHLAGPQGHLVMYLYKHPDKDMSIKAVEEILHISKSVASNLVKRMEKNGFIAIVPSKTDKRVKYLYLTHLGKKKATQFEIFLEKLHSTMLAGITKEEIRTTKKVIRTLAKNMAMENLD”, the “soluble on expression in E. coli” value is “soluble”.

As to “MENSIRYISEHPTDFNGLLSLYESLGWNSLKLTVNELERMCKQSWYAIYVFDDKRLVGMGRVISDGVITGIICGVGVLPKYQSSGIGKEIVKRLIQHCEQNKVIPQLMCVEKLQSYYESIGFEAFSIGMTKHIIR”, the “soluble on expression in E. coli” value was “not soluble”.

As to “MENTETLIVEQLKIGNENAYRYIYDHHYALLCYVANGYLKDQFLSETIVGDTIFHLWEIRETLDISVSIRSYLLRAVRNRCINYLNSEREKREIAFSALMPDEITDDKIILSDSHPLGILLERELENEIYKAIDKLPDECRRVFAKSRFEGKSYEEISGELGISINTVKYHIKNALASLHAHLSKYLISLLLFFFR”, the “soluble on expression in E. coli” value is on record as “not soluble”.

As for “MENVVIIDAVRTPMGRSKGGAFRHVRAEDLSAHLMRAVISRNPGLNAAEIDDIYWGCVQQTLEQGFNIARNASLLAEIPHSVPAVTVNRLCGSSMQALHDGARAIMVGDAKISLIGGVEHMGHVPMNHGVDFHPGMGRTVAKAAGMMGLTAEMLAKIHNISRQSQDEFAFRSHQRAYAATQAGHFAKEIVATNGHDAEGVLKRFDFDEVIRPETNLSGLAALRPAFDPVNGTVTAGTSSALSDGASAMLIMSESRAKSLGLTPRARIRSMAVVGCDPSIMGYGPVPASQLALKRAGLELADIGLFELNEAFAAQSLACLKGLGLLESMDDKVNLNGGAIALGHPLGCSGARISTTLLNLMERRDVQFGLATMCIGLGQGIATVFERL”, the “soluble on expression in E. coli” value is “not soluble”.

As for “MEPADEPSELVSAEGRNRKAVLCQRCGSRVLQPGTALFSRRQLFLPSMRKKPALSDGSNPDGDLLQEHWLVEDMFIFENVGFTKDVGNIKFLVCADCEIGPIGWHCLDDKNSFYVALERVSHE”, the “soluble on expression in E. coli” value is “soluble”.

For the sequence “MEPHSLRYNLTVLSWDGSVQSGFLTEVHLDGQPFLRCDRQKCRAKPQGQWAEDVLGNKTWDRETRDLTGNGKDLRMTLAHIKDQKEGLHSLQEIRVCEIHEDNSTRSSQHFYYDGELFLSQNLETKEWTMPQSSRAQTLAMNVRNFLKEDAMKTKTHYHAMHADCLQELRRYLKSGVVLRRTVPPMVNVTRSEASEGNITVTCRASGFYPWNITLSWRQDGVSLSHDTQQWGDVLPDGNGTYQTWVATRICQGEEQRFTCYMEHSGNHSTHPVPS”, the “soluble on expression in E. coli” value is “soluble”.

As to “MEQDINNQTGKKIFLNEECFLELDKLPQHVSVLGVSGFGKSNILLHFLKYAIDNDHPLIFVNGKGDKELITQFEHYQTSAKQLSPEDGFDTVKLVALKNTSAKIWSLDDRIATIKYNPFK”, the “soluble on expression in E. coli” value is listed as “soluble”.

As to “MEQKHNGIIFTAIPNESNEYYQPFYEDLIYFNECLNEKKSIADQLISLSVEEQDFHTSCFEYDDIWLRDVAPVVTNHLVKFKYRPNYLPDDQGRYLDQQFNKWLKKNDFEYVKSPLILDGGNLIWNKKDTVILTERIFDDNDDWTEEEIIEQLEWDLDVSRVIIIPAEEGDVLAHADGMVKFIDEHTMFISDFLGDHEFRYSVEEIIQEQMPEAEFIVVPSSYTEKGQYDQEIASAKGLYINMLESCDALYVPKFGLAKDEEVLRYIQQYTEKQVIQIHVGEISTMGGAMNCLTWYCPSHLLPSKMRRLKNQNEDFSMKKIFDWFLEHHHHHH”, the “soluble on expression in E. coli” value is “soluble”.

As for “MEQRLLAVFDFDGTITRHDSFVPFLKFAFGQRVFSVRMARLVLPSLGYLTKRLSRDELKGRLIKAFLSGVEVQWLQQKAEAFCHSHWKRLMRPAALESIAAEIEKGAIVTLCSASPAMVLQPFADRLKVELIGTNLEVIDGKLTGLIEGSNCRCDSKVARLESVYGPLTQFRVRAWGDTRGDHELLAAAQDAHWRLFHPTWRRGRYKGPVNAKLHNPDGKDGPTR”, the “soluble on expression in E. coli” value was “not soluble”.

In the case of “MERCGWVSQDPLYIAYHDNEWGVPETDSKKLFEMICLEGQQAGLSWITVLKKRENYRACFHQFDPVKVAAMQEEDVERLVQDAGIIRHRGKIQAIIGNARAYLQMEQNGEPFVDFVWSFVNHQPQVTQATTLSEIPTSTSASDALSKALKKRGFKFVGTTICYSFMQACGLVNDHVVGCCCYPGNKPLEHHHHHH”, the “soluble on expression in E. coli” value was “soluble”.

For the sequence “MERSLYSPDLRIPPANIHNNHLKIDTDRKIRFAITHPEIKKAKGTIVILESYANALEEYFLPMNEISNRGFYTAIFDWFGREESQPDKQKQSRYNYFNINNDINDLNEFLKNIVYCNCPPPYYMLTYGMGGLIALSGLDLINHKFNKMLCISPLFAPFGNKTNSFQHKLTQLLSDIGLGFLPAKGGEKLKQKSTQFMRINEAALSSDFLIKRPTSRWMASVLNAIDSVKKNILNGHLEIPTLFILANQNNIANNIEIRQLCQYTHLTDSITITGAELDTIMHEESYQKQFWIAFDAFIRG”, the “soluble on expression in E. coli” value is on record as “not soluble”.

Turning to “MERSWGMGHFPHMQKKTLDAFVRGLQIVMEAEGIKMKPLSVAAGMGESGVRDLIRNESSPKVANAYALARELGRTVDEIIQIGMTGDLNARPAHAPIAVAGCVGAGARVDLLDAYEKGDGMYHVARPPQLKPHGIVAVEVKGESMMPLYRPGSVLFYTRAAAEGVPVEALNTPCVCEDADGRAWLKVVKVGSQEGTFSLLSLNPDADNMHGVRLKWAAPVLLTLSPDYVERVYV”, the “soluble on expression in E. coli” value is reported as “not soluble”.

Turning to “MERVASVLSALKPTLEKHQLGSWKPAEVDRLCAMLREYGKQERRDKCGTSCLDGAATALASLPSSSSVPPSLPSGGDDVEDENDADEEAFAGVVSEVDRCLSLVRDFLKRRMPFGAVVEPTLPAGTAERQAPQSSSADIISCKRARSLSGEPSSSAPTSNSVHSGAAVVEAPVYAVDAFLYAEGDIEKLVEAKKLAREYCCRCGSTDLGLVEFITHSFSQDQLVYLSCFLLPHLLDVVVASHEASRPLSIVDVGSRLGIVLWACAFALQRGLLAPAQAATTDAAADDAAPEVNLVGIELDATFVKISQDVARRFFAQRRRHAPKLVSVPQPAAANGVDAKLPDVSSSIQLLQSDCFEGAAASALSESSLVVMHNVFEYFCTTAVEHARCWLKLRRLVHRSGQFLVCSPALEVTLGTFTDEVWLQAWQLENGNDARGASTPLAWLASYVEPFDTADVASDFLTMRTLSCEGCDAGSDGDKHHEDHHGRSRDHHHHSSEDDEGDGEEASEMAEQIQRIYVYCVK”, the “soluble on expression in E. coli” value is “not soluble”.
